# Laboratory results from the supplement of paper PMC7125110.
# ± gives the standard error. Variants at the floor of the assay were thinned out.
# B1: glmS ribozyme (parent)
# chain: AUAAAAGCGCCAGAACUACAGAAAUGUAGUUGACGAGGAGGAGGUUUAUCGAAUUUUCGGCGGAUGCCUCCAAA
# Tests used:
# Conditions in all cases: with glucosamine-6-phosphate
# [1] = variants of: B1; assay: self-cleavage kobs at 40 uM GlcN6P; higher = faster cleavage; RNA array
# How it was run: (§1)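 Over ~14 h at 37 °C, tiles were imaged as glucosamine-6-phosphate (40 μM to 10 mM) in HEPES/KCl/Mg(OAc)2 buffer flowed across sequenced MiSeq chips. The chips carried barcoded ribozyme variants transcribed in situ by E. coli RNA polymerase and tracked with a hybridised Cy3 probe. After normalisation to baseline and to non-cleaving reference variants, one- or two-exponential decay fits of per-tile medians gave kobs. kcat and KM followed from weighted Michaelis–Menten fits across concentrations.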
# [2] = variants of: B1; assay: self-cleavage kobs at 640 uM GlcN6P; higher = faster cleavage; RNA array
# How it was run: as §1
# [3] = variants of: B1; assay: self-cleavage kobs at 2500 uM GlcN6P; higher = faster cleavage; RNA array
# How it was run: as §1
# [4] = variants of: B1; assay: self-cleavage kobs at 10000 uM GlcN6P; higher = faster cleavage; RNA array
# How it was run: as §1
# [5] = variants of: B1; assay: self-cleavage kobs at 160 uM GlcN6P; higher = faster cleavage; RNA array
# How it was run: as §1
Variant,self-cleavage kobs at 40 uM GlcN6P [1],self-cleavage kobs at 640 uM GlcN6P [2],self-cleavage kobs at 2500 uM GlcN6P [3],self-cleavage kobs at 10000 uM GlcN6P [4],self-cleavage kobs at 160 uM GlcN6P [5]
AUAAAAGCGACAGAACUACAGAAAUGUAGUUGACGAGGAGGAGGUUUAUCGCAUUUUCGGCGGAUGCCUCCAAA [C10A A52C],< 1e-05 s⁻¹,< 1e-05 s⁻¹,< 1e-05 s⁻¹,< 1e-05 s⁻¹,
AUAAAAGCGCCAGAACUACAGAAAUGUAGUUGACGAGGAGGAGGUUUAUCAAAUUUUCGGCGGAAGCCUCCAAA [G51A U65A],< 1e-05 s⁻¹,,< 1e-05 s⁻¹,< 1e-05 s⁻¹,
AUAAAAGCGCCAGAACUACAGAAAUGUAGUUAACGAGGAGGAGGUUUAUCGAAUUUUCCGCGGAUGCCUCCAAA [G32A G59C],< 1e-05 s⁻¹,< 1e-05 s⁻¹,< 1e-05 s⁻¹,,< 1e-05 s⁻¹
AUAAAAGAGCCAGAACUACAGAAAUGUAGUUGACGAGGAGGAGGUUUAUCGAAUUUUCGGCGGAUGCGUCCAAA [C8A C68G],0.000368 ± 0.00014 s⁻¹,,,,
AUAAAAGCGACAGAACUACAGAAAUGUAGUUGACGAGGAGGAUGAUUAUCGAAUUUUCGGCGGAUGCCUCCAAA [C10A G43U U45A],< 1e-05 s⁻¹,< 1e-05 s⁻¹,< 1e-05 s⁻¹,,
AUAAAAACGCCAGAACUACAGAAAUGUAGUUGCCGAGGAGGAGGUUUAUCGAAUUUCCGGCGAAUGCCUCCAAA [G7A A33C U57C G63A],< 1e-05 s⁻¹,,,,
AUAAAAGCGCCAGAACUACAGAAAUGUAGUUCACGAGGAGGAGGUUUAUCGAAUUUACGGCGGAUGCCUCCAAA [G32C U57A],< 1e-05 s⁻¹,,,,
AUAAAAUCGCCAGAACUAAAGAAAUGUAGUUGACGAGGAGGAGGUUUAUCGAAUUUUCGGCGGAUGCCUCCAAA [G7U C19A],< 1e-05 s⁻¹,< 1e-05 s⁻¹,< 1e-05 s⁻¹,,< 1e-05 s⁻¹
AUAAAAGCGGCAGAACUACAGAAAUGUAGUUGACGAGGAGGACGUAUAUCGAAUUUUCGACCGAUGCCUCCAAA [C10G G43C U46A G60A G62C],< 1e-05 s⁻¹,,,,
AUAAAAGCGCCAGAACUACAGAAAUGUAGUUGCCGAGGAGGAGGUUUAUCGUAUUUUCGGCGGAUGCCUCCAAA [A33C A52U],< 1e-05 s⁻¹,< 1e-05 s⁻¹,,< 1e-05 s⁻¹,
AUAAAAGCGCUAGAACUACAGAAAUGUAGUUGACGAUGAGGAUGUUUAUCGAAUUUUCGGCGUAUGCCUCCAAA [C11U G37U G43U G63U],< 1e-05 s⁻¹,,< 1e-05 s⁻¹,< 1e-05 s⁻¹,
AUAAAAGCGCCAGAACUACAGAAAUGUAGUUGACGAGGAGUAGGUGUAUCGAAUUUUCCGCGGAUGCCUCCAAA [G41U U46G G59C],< 1e-05 s⁻¹,< 1e-05 s⁻¹,< 1e-05 s⁻¹,< 1e-05 s⁻¹,
AUAAAAGCGCCAGAACUACAGAAAUGUAAUUGACGAGGAGGAGGUUUAUCGAAUUUUCGGCGGAUGCCUUCAAA [G29A C70U],0.000121 ± 1.3e-05 s⁻¹,0.000483 ± 6e-05 s⁻¹,,0.0021 ± 0.0006 s⁻¹,0.000201 ± 2.9e-05 s⁻¹
AUAAAAUCGCCAGAACUACAGAAAUGUAGUUGACGAGGCGGAGGUUUAUCGAAUUUUCGGCGGAUGCCUCCAAA [G7U A39C],< 1e-05 s⁻¹,< 1e-05 s⁻¹,,< 1e-05 s⁻¹,< 1e-05 s⁻¹
AUAAAAGCGCCAGAACUACAGAAAUGUAAUUUAGGAGGAGGAGGUUUAUAGAAUUUUCGGUGGAUGCCUCCAAA [G29A G32U C34G C50A C61U],< 1e-05 s⁻¹,,,< 1e-05 s⁻¹,
AUAAAGGCGCCGGAACUACAGAAAUGUAGUUGACGAGGAGGAGGUUUAUCGAAUUUUCGGCGGUUGCCUUCAAA [A6G A12G A64U C70U],< 1e-05 s⁻¹,,,< 1e-05 s⁻¹,
AUAAAAGCGCCAGAACUACAGAAAUGUAGUUGAUGAGGGGGAGGUUUAUCGAAUUUUCGGCGGAUGCCUCCAAA [C34U A39G],< 1e-05 s⁻¹,< 1e-05 s⁻¹,< 1e-05 s⁻¹,< 1e-05 s⁻¹,< 1e-05 s⁻¹
AUAAAAGCGCCAGAACUACAGAAAUGUAGUUCACGAGGAGGAGGUUUAUCAAAUUUUCGGCGGAUACCUCCAAA [G32C G51A G66A],< 1e-05 s⁻¹,< 1e-05 s⁻¹,< 1e-05 s⁻¹,< 1e-05 s⁻¹,
AUAAAAGCGCCAGAACUACAGAAAUGUAGUUGACGCGGAGGAUGUUUAUCGAAUUUUCGGCGGAUGCCUCCAAA [A36C G43U],< 1e-05 s⁻¹,< 1e-05 s⁻¹,< 1e-05 s⁻¹,< 1e-05 s⁻¹,
AUAAAAGCGCAAGAACUACAGAAAUGUAGUUGACGAGGAGGAGUUUUAUCGAAUUUUCUGCGGAUGACUCCAAA [C11A G44U G59U C67A],0.000322 ± 8.1e-05 s⁻¹,,,0.00946 ± 0.002 s⁻¹,
AUAAAAUCGCCAGAACUACAGAAAUGUAGUUGACGAGGAGGAGGGUUAUCGAAUUUUCGGCGGAUGCCUCAAAA [G7U U45G C71A],< 1e-05 s⁻¹,,< 1e-05 s⁻¹,< 1e-05 s⁻¹,
AUAAAAGCGCCAUAACUACAGAAAUGUAAUUGACGAGGAGGAGUUUUAUCGAAUGUUCGGCGGAUGCCUCCAAA [G13U G29A G44U U55G],< 1e-05 s⁻¹,,,< 1e-05 s⁻¹,
AUAAAGGCGCCAGUACUACAGAAAUGUAGUUGACGAGGAGGAGGUUUAUCGAAUGUUCGGCGGAUGCGUCCAAA [A6G A14U U55G C68G],< 1e-05 s⁻¹,,,,
AUAAAAUCGCCAGAACUACAGAAAUGUAGUUGACGAGGAGGAGGUUUAUCGAAUUUUCGUCGGAUGCCUCCAAA [G7U G60U],< 1e-05 s⁻¹,< 1e-05 s⁻¹,,< 1e-05 s⁻¹,< 1e-05 s⁻¹
AUAAAAGCGCCAGAACUACAGAAAUGUAGUUGACGAGGAGGAGAUGUAUCGAAUUUUCGGCGGAUGCCGCCAAA [G44A U46G U69G],< 1e-05 s⁻¹,,,< 1e-05 s⁻¹,
AUAAAAGCGCCAGAACUACAGAAAUGUAGUUGACGAGGAGGAGGUUUAUUGAAUUUUCCGCGGAUGCCUCCAAA [C50U G59C],< 1e-05 s⁻¹,< 1e-05 s⁻¹,< 1e-05 s⁻¹,< 1e-05 s⁻¹,< 1e-05 s⁻¹
